Binding response (resonance units) for 200 nM ligand, EC50 [M]; activation of W-20-17/BRE-luc luciferase reporter cells and EC50, activation of A204/CAGAx12-Luc cells (Smad 2/3-luciferase reporter) data for nine molecules are collected here from US20150037339A1.

B1: H4H10429P (antibody, human IgG4, V domains shown)
VH: QVQLVESGGGVVQPGRSLRLSCVASGFTVSSYGIHWVRQAPGKGLEWVSVIWYDGRNKDYADSVKGRFTISRDNSKNTVYLEMKGLRAEDTALYYCARDKTGDFDSWGQGTLVTVSS
VL: DIQMTQSPSSLSASVGDRVTITCRASQNINSFLSWYQQKPGKAPKFLIYDASSIQSGAPSRFSGSGSGTDFTLTISSLQPEDFATYYCQQSYSSPFTFGQGTKLEIK
B2: BMP10 (ligand, human, UniProt O95393 317-424, looked up)
chain: NAKGNYCKRTPLYIDFKEIGWDSWIIAPPGYEAYECRGVCNYPLAEHLTPTKHAIIQALVHLKNSQKASKACCVPTKLEPISILYLDKGVVTYKFKYEGMAVSECGCR
B3: BMP4 (ligand, human, UniProt P12644 293-408, looked up)
chain: SPKHHSQRARKKNKNCRRHSLYVDFSDVGWNDWIVAPPGYQAFYCHGDCPFPLADHLNSTNHAIVQTLVNSVNSSIPKACCVPTELSAISMLYLDEYDKVVLKNYQEMVVEGCGCR
B4: BMP9 (ligand, human, UniProt Q9UK05 320-429, looked up)
chain: SAGAGSHCQKTSLRVNFEDIGWDSWIIAPKEYEAYECKGGCFFPLADDVTPTKHAIVQTLVHLKFPTKVGKACCVPTKLSPISVLYKDDMGVPTLKYHYEGMSVAECGCR
B5: BMP2 (ligand, human, UniProt P12643 283-396, looked up)
chain: QAKHKQRKRLKSSCKRHPLYVDFSDVGWNDWIVAPPGYHAFYCHGECPFPLADHLNSTNHAIVQTLVNSVNSKIPKACCVPTELSAISMLYLDENEKVVLKNYQDMVVEGCGCR
B6: Activin B, P09529 293-407 (ligand)
chain: GLECDGRTNLCCRQQFFIDFRLIGWNDWIIAPTSYYGNYCEGSCPAYLAGVPGSASSFHTAVVNQYRMRGLNPGTVNSCCIPTKLSTMSMLYFDDEYNIVKRDVPNMIVEECGCA
B7: Activin A, P08476 311-426 (ligand)
chain: GLECDGKVNICCKKQFFVSFKDIGWNDWIIAPSGYHANYCEGECPSHIAGTSGSSLSFHSTVINHYRMRGHSPFANLKSCCVPTKLRPMSMLYYDDGQNIIKKDIQNMIVEECGCS
B8: Activin AC, P55103 237-352 (ligand, human)
chain 1: GLECDGKVNICCKKQFFVSFKDIGWNDWIIAPSGYHANYCEGECPSHIAGTSGSSLSFHSTVINHYRMRGHSPFANLKSCCVPTKLRPMSMLYYDDGQNIIKKDIQNMIVEECGCS
chain 2: GIDCQGGSRMCCRQEFFVDFREIGWHDWIIQPEGYAMNFCIGQCPLHIAGMPGIAASFHTAVLNLLKANTAAGTTGGGSCCVPTARRPLSLLYYDRDSNIVKTDIPDMVVEACGCS
B9: Activin AB, P08476 311-426; P09529 293-407 (ligand)
chain 1: GLECDGKVNICCKKQFFVSFKDIGWNDWIIAPSGYHANYCEGECPSHIAGTSGSSLSFHSTVINHYRMRGHSPFANLKSCCVPTKLRPMSMLYYDDGQNIIKKDIQNMIVEECGCS
chain 2: GLECDGRTNLCCRQQFFIDFRLIGWNDWIIAPTSYYGNYCEGSCPAYLAGVPGSASSFHTAVVNQYRMRGLNPGTVNSCCIPTKLSTMSMLYFDDEYNIVKRDVPNMIVEECGCA

In the first assay the target is hBMP7 (human) (UniProt P18075). Nature of the assay: SPR (Biacore 4000), captured on anti-human Fc, 200 nM ligand injected, 37 C.
hBMP7 (human), sequence (P18075 293-431 limits assumed): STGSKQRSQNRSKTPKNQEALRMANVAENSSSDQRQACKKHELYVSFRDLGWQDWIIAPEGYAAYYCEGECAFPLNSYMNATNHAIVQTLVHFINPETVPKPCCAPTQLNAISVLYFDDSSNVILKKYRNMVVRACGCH
In the case of B1, the binding response (resonance units) for 200 nM ligand was 9.2 RU.

The next assay concerns the target BMP receptor types I and II (on W-20-17/BRE-luc cells). Nature of the assay: cell-based or functional assay.
On to B2, for which the EC50 [M]; activation of W-20-17/BRE-luc luciferase reporter cells came out at 2.5e-09 M.

The molecule B3 showed an EC50 [M]; activation of W-20-17/BRE-luc luciferase reporter cells of 6.3e-11 M.

Take B4: the EC50 [M]; activation of W-20-17/BRE-luc luciferase reporter cells was 2.6e-10 M.

Turning to B5, the EC50 [M]; activation of W-20-17/BRE-luc luciferase reporter cells amounted to 3.4e-11 M.

The next assay addresses activin Type II receptors. Description: cell-based or functional assay.
In turn, B6 showed an EC50, activation of A204/CAGAx12-Luc cells (Smad 2/3-luciferase reporter) of 0.047 nM.

As for B7, the EC50, activation of A204/CAGAx12-Luc cells (Smad 2/3-luciferase reporter) came out at 0.099 nM.

B8 displayed an EC50, activation of A204/CAGAx12-Luc cells (Smad 2/3-luciferase reporter) of 4.4 nM.

Take B9: the EC50, activation of A204/CAGAx12-Luc cells (Smad 2/3-luciferase reporter) was determined as 0.019 nM.
